Assay results taken from patent US20070166719A1 (NEW ENGLAND BIOLABS, published 2007).

Molecular target: T1, R-M-CspCI endonuclease-methyltransferase subunit (Citrobacter species 2144 (NEB#1398))
T1 construct: also called large subunit; R-M-subunit
T1 chain: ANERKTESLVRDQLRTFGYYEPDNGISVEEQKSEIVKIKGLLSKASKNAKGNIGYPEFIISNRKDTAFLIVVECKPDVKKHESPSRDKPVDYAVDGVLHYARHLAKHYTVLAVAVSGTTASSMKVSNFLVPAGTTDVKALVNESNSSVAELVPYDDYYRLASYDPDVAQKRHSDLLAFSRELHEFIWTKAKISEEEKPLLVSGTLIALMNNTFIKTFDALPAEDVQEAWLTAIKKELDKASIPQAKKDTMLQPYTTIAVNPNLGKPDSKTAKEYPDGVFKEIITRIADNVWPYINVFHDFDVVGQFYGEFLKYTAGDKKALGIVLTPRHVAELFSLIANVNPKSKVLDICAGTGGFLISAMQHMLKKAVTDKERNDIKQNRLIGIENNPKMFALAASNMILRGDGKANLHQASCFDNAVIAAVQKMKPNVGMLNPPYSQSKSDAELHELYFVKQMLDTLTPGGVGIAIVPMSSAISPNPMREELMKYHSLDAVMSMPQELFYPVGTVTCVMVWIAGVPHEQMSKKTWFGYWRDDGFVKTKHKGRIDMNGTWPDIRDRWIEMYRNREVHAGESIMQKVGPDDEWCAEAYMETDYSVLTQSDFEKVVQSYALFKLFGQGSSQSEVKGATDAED
Experiment: HPLC of purified CspCI; molar ratio derived from the mass ratio 1:0.47

B1: CspCI specificity subunit (S-CspCI) (other)
chain: PKINDLFHLEYGHSLELNRLEQSTAADAVNFVGRAARNNGVTARVAPPPNLKPAAAGTISVALGGQGGAGVAFLQPRPYFCGRDVMVLTPKKHMTDQEKLWWVMCITANRFRFGFGRQANRTLKDLNLPAPQKTPSWVHTANPDAYQGVRSPASVHPVGTLAVSNWKAFILQDLFTIRKGQRLTKANMLPGTVPYIGASDTSNGVTAHIGQKPIHEGGTISVTYDGSIAEAFYQPSPFWASDAVNVLYPKGFTLTPATALFICAIIRMEKYRFNYGRKWHLERMRETVIRLPATATGAPDWDFMEKYIKTLPYSSQLQ
notes: also called small subunit; S-subunit
molar ratio (70 kDa : 35 kDa protein in the purified enzyme): 1.06 mol small subunit per mol large subunit
